# Test results taken from patent US20150191709, “MODIFIED HELICASES” (OXFORD NANOPORE TECHNOLOGIES LIMITED, published 2015).
# T1: Hel308 Mbu(E284C/S615C)-bismaleimidePEG11 (Methanococcoides burtonii, UniProt Q12WZ6 SEQ:1-760, E284C/S615C)
# T1 sequence: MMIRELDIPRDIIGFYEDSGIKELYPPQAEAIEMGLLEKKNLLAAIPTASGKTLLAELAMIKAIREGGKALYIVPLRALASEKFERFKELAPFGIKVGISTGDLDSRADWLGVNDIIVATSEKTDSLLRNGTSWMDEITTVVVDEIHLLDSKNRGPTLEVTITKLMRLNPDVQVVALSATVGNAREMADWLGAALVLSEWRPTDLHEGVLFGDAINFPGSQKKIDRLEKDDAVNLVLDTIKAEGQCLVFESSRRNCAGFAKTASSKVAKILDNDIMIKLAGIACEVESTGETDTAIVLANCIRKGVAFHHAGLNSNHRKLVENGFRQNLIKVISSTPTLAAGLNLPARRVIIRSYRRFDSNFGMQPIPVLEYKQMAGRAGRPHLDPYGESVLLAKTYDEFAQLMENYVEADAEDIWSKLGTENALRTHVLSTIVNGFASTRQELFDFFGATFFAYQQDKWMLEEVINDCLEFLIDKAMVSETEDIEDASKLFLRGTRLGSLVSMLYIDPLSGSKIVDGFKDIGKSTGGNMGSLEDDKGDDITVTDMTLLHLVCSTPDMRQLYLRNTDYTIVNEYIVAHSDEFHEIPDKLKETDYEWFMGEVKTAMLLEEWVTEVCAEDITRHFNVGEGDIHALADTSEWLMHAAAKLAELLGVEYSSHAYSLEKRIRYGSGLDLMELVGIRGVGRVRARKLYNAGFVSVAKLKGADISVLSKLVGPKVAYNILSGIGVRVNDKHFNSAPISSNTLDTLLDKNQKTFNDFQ
# T2: Hel308 Mbu(E284C/S615C)-bismaleimidePEG3 (Methanococcoides burtonii, UniProt Q12WZ6 SEQ:1-760, E284C/S615C)
# T2 sequence: T1 sequence
# B1: 80 bp blocker processivity substrate (dsDNA)
# DNA 1: TCGCTGCTCCACAGGTCTCAGCTTGAGCAGCGAAAATAAGAACATTATGATCAGTAGGAGCACTACGACCTTTGTTCTGGTGCTCGTCCGGGCGCCCAAAGTGGAGCGAGTGCCCCC
# DNA 2: GCACTCGCTCCACTTTGGGCGCCCGGACGAGCACCAGAACAAAGGTCGTAGTGCTCCTACTGATCATAATGTTCTTATTT
# DNA 3: TCGCTGCTCAAGCTGAGACCTGTGGAGCAGCGA
# Assays:
# [1] = target: Heat treated Hel308 Mbu-E284Faz E284Faz (Methanococcoides burtonii) (UniProt Q12WZ6); settings: four nitroindoles between SEQ 155 and SEQ 154; nanopore; 500 nM, 960 mM KCl, 10 mM MgCl2, 1 mM ATP
# [2] = target: Hel308 Mbu-E284Faz E284Faz (Methanococcoides burtonii) (UniProt Q12WZ6); settings: four nitroindoles between SEQ 155 and SEQ 154; nanopore; 100 nM, 960 mM KCl, 10 mM MgCl2, 1 mM ATP
# [3] = target: T1, Hel308 …; assay: fluorescence unwinding; increased processivity; 400 mM NaCl, 1 mM ATP, 10 mM MgCl2; settings: tags: C284 and C615 crosslinked by bismaleimidePEG11 (closed); 3' ssDNA overhang, 80 and 33 bp duplex sections
# From the text: (§1) The fluorescent probe is designed in such a way that its 5′ and 3′ ends are self-complementary and thus form a kinetically-stable hairpin once displaced, preventing the probe from re-annealing to the template strand (FIG. 3 section D). Upon formation of the hairpin product, the FAM is brought into the vicinity of the BHQ-1 and its fluorescence is quenched. A processive enzyme, capable of displacing the 80 mer “blocker” (SEQ ID NO: 111) and fluorescent (SEQ ID NO: 112, labelled with a carboxyfluorescein (FAM) at its 5′ end a black-hole quencher (BHQ-1) at its 3′ end) strands will therefore lead to a decrease in fluorescence over time. However, if the enzyme has a processivity of less than 80 nt it would be unable to displace the fluorescent strand (SEQ ID NO: 112, labelled with a carboxyfluorescein (FAM) at its 5′ end a black-hole quencher (BHQ-1) at its 3′ end) and, therefore, the “blocker” strand (SEQ ID NO: 111) would reanneal to the major bottom strand (FIG. 3 section E, SEQ ID NO: 110).
# [4] = target: T2, Hel308 Mbu(E284C/S615C)-bismaleimidePEG3; assay: as above; settings: tags: C284 and C615 crosslinked by bismaleimidePEG3 (closed); 3' ssDNA overhang, 80 and 33 bp duplex sections
# From the text: as §1
Molecule,activity (% movements reaching polyT) [1],activity (% movements reaching polyT) [2],binding result [3],binding result [4]
3.6 kb DNA,71,28,,
B1,,,binds,binds
